Test results: patent publication US20050069541A1, “Composition for and treatment of demyelinating diseases and paralysis by administration of remyelinating agents” (priority 2003, published 2005)
Values belong to the molecule of their own block, whether it stands above or below them.

Tests used:
[1] = molecular target: α6 integrin (human) (human) (UniProt P23229)
CD2 (rat) (rat) = CD2 (rat) (rat) (UniProt P08921)
[2] = molecular target: monocyte/T cell surface antigen (rat) (rat)
[3] = molecular target: α4 integrin (mouse) (mouse) (UniProt Q00651)
Mac-1 (human) (human) = Mac-1 (human) (human) (UniProt P11215)
[4] = molecular target: β2 integrin (human) (human) (UniProt P05107)
[5] = molecular target: α4 integrin (human) (human) (UniProt P13612)
CD4 (rat) (rat) = CD4 (rat) (rat) (UniProt P05540)
[6] = molecular target: α4 integrin (human) (human) (UniProt P13612); remark: listed apart in the source
[7] = molecular target: α4 integrin (human) (human) (UniProt P13612); remark: listed apart in the source
[8] = molecular target: α4 integrin (human) (human) (UniProt P13612); remark: listed apart in the source
[9] = molecular target: α4 integrin (human) (human) (UniProt P13612); remark: listed apart in the source
[10] = molecular target: L-selectin (mouse) (mouse) (UniProt P18337)
CD45 (rat) (rat) = CD45 (rat) (rat) (UniProt P04157)
Thy 1.1 (rat) (rat) = Thy 1.1 (rat) (rat) (UniProt P01830)
[11] = system: spinal cord lesions of paralyzed EAE guinea pigs; test: Example 2: spontaneous remyelination in chronic EAE (SCR, toluidine blue, EM, lesion area analysis, motor function); format: in vivo, guinea pig
[12] = system: EAE in female Hartley guinea pigs; conditions: listed as N-[N-(3-pyridinesulfonyl)-L-3,3-dimethyl-4-thiaprolyl]-O-[1-methylpiperzain-4-yl
[13] = system: infiltrating cells in spinal cord; test: Chronic EAE: mean cell counts in spinal cord (H-E sections, 0.12 mm^2 fields); format: in vivo, guinea pig; conditions: listed as N-[N-(3-pyridinesulfonyl)-L-3,3-dimethyl-4-thiaprolyl]-O-[1-methylpiperzain-4-yl
Method: To quantify the abnormalities observed in the spinal cord, sections stained with H-E were divided into 12 representative pie-shaped areas. In each area, the number of cells within a 0.12 mm^2 field of view was counted using Sigma Scan Pro image analysis software (SPSS Inc.), and the combined mean number of cells in all 12 areas was calculated for the whole spinal cord (36 fields of view per animal). Note that as all cell nuclei were counted, the number of cells may include neurons and glial cells in addition to infiltrates.

[14] = system: brain and spinal cord of EAE guinea pigs; test: Chronic EAE: histology and blinded pathological scoring of brain and spinal cord sections (H-E, SCR); format: in vivo, guinea pig; conditions: versus saline; listed as N-[N-(3-pyridinesulfonyl)-L-3,3-dimethyl-4-thiaprolyl]-O-[1-methylpiperzain-4-yl
Method: Animal Sacrifice and Histological Analysis. Untreated, chronic EAE animals (n=5) were sacrificed on day 40, as well as non-EAE controls (n=5). Following each 10-day treatment interval, 5 animals from each group were sacrificed (0.25 mL sodium pentobarbital), blood samples were collected for FACS analysis (see below), and the brain and spinal cord dissected and sectioned. Three spinal sections were used, corresponding to lumbar, thoracic and cervical regions of the cord. The brain was cut into five transverse sections. The first three proximal sections were combined in one block, and the last two distal sections in another. Tissues were fixed in 10% formalin and embedded in paraffin. […] sections were stained with hematoxylin-eosin (H-E) or solochrome-R-cyanlin (SCR) and evaluated by a blinded observer in each of four categories: (1) meningeal inflammation, (2) perivascular infiltration, (3) encephalitis or (4) myelitis and demyelination (Table 6). The combined pathological score represents the total score (out of a potential 20) from all 5 CNS sections in each animal.

α4 integrin = α4 integrin (Homo sapiens, UniProt P05556+P13612); test: Inhibition of cell adhesion to VCAM; format: cell-based, human and guinea pig; conditions: 100% serum; read-out: IC50 for inhibition of cell adhesion to high density VCAM-1 in the presence of 100% serum
IL-2, IL-10, MCP-1 RNA = test: Chronic EAE: quantitative RT-PCR of spinal cord; format: in vivo, guinea pig; conditions: 10 days after withdrawal; listed as N-[N-(3-pyridinesulfonyl)-L-3,3-dimethyl-4-thiaprolyl]-O-[1-methylpiperzain-4-yl
Method: Quantitative Reverse Transcription-PCR: IL-2, IL-10, MCP-1. RNA was isolated from 30 mg of frozen guinea pig spinal cord using the S.N.A.P.™ (simple nucleic acid preparation) total RNA Isolation Kit (Invitrogen) according to manufacturer's instructions, modified to include a second DNAse treatment step followed by an additional purification over the S.N.A.P. column.
Primer/probe sequences and concentrations for IL-2, IL-10, and MCP-1 are given in Table 7, as well as the standard RNA used for each gene. RT-PCR was carried out in triplicate using the ABI PRISM® 7700 Sequence Detection System. 50 μl reactions contained 10 to 800 ng of total RNA and primers and probes at the concentrations indicated above in reaction buffer consisting of 6.67% glycerol (Amresco); 5.5 mM MgCl; 300 μM DATP, dCTP, dGTP, and dUTP; 100 nM probe; 1.25 unit of AmpliTaq Gold® DNA Polymerase (Applied Biosystems); 1× TaqMan® Buffer A (TaqMan® PCR Core reagents kit, Applied Biosystems), 20 units of RNase Inhibitor (Roche); 1.25 unit of murine leukemia virus (MuLV) Reverse Transcriptase (Applied Biosystems). Reverse-transcription of RNA was carried out at 48° C. for 30 min., followed by a 10 min. denaturing step at 95° C. PCR was carried out by 40 thermo-cycles consisting of 95° C. for 15 seconds followed by 60° C. for 1 minute. Each plate included a standard curve using the standard RNA listed in Table 7 and two additional control samples: 1) a positive control RNA sample used on all plates, 2) a non-template control (NTC).
The correlation coefficients of the standard curves were greater than 0.990 for all data shown. The coefficients of variation for sample triplicates were less than 0.2. Since the RNA used for the standard curve is a heterogeneous mix of RNA containing a constant but unknown amount of the target message, the numbers calculated are relative.

[15] = molecular target: β1 integrin (human) (human) (UniProt P05556)
[16] = molecular target: β1 integrin (human) (human) (UniProt P05556); remark: listed apart in the source
[17] = molecular target: α4 integrin (human) (human) (UniProt P13612); remark: listed apart in the source
VLA-4 = molecular target: T1, VLA-4 (Homo sapiens, UniProt P05556+P13612); conditions: cited from earlier work
T1 construct: endogenous in cells; host or cells: Jurkat cells

human lymphocytes = conditions: cited from earlier work

- Relative Binding to EAE Vessels (% of Control), rat lymphocytes (CD2 (rat) (rat)): 100 % of Control
Molecule: OX-34 (antibody)

- Relative Binding to EAE Vessels (% of Control), rat lymphocytes [2]: 102 % of Control
Molecule: OX-44 (antibody)

- Relative Binding to EAE Vessels (% of Control), rat lymphocytes (LFA-1 (rat) (rat)): 87 % of Control
Molecule: OX-52 (antibody)

- Relative Binding to EAE Vessels (% of control) [4]: 98 % of control
Molecule: TS1/18 (antibody)

- Relative Binding to EAE Vessels (% of control) [5]: 338 % of control
Molecule: HP1/7 (antibody)

- Relative Binding to EAE Vessels (% of Control), rat lymphocytes (CD4 (rat) (rat)): 107 % of Control
Molecule: OX-35 (antibody)

- melting point: 158 to 160 °C
Molecule: Cc1ccc(S(=O)(=O)N2CCC[C@H]2C(=O)N[C@@H](Cc2ccc(OC(=O)N3CCN(CCO)CC3)cc2)C(=O)OC(C)(C)C)cc1

- Relative Binding to EAE Vessels (% of Control), rat lymphocytes (CD45 (rat) (rat)): 90 % of Control
Molecule: OX-1 (antibody)

- Relative Binding to EAE Vessels (% of control) [15]: 8 % of control
- Relative Binding to EAE Vessels (% of Control), human lymphocytes [16]: 7 % of Control
Molecule: AIIB2 (antibody)

Further lines, the molecule ahead of its results:

Molecule: GoH3 (antibody)
- Relative Binding to EAE Vessels (% of control) [1]: 88 % of control

Molecule: R1-2 (antibody)
- Relative Binding to EAE Vessels (% of Control), mouse lymphocytes [3]: 43 % of Control

Molecule: LM2/1 (antibody)
- Relative Binding to EAE Vessels (% of control) (Mac-1 (human) (human)): 107 % of control

Molecule: P4G9 (antibody)
- Relative Binding to EAE Vessels (% of control) [5]: 151 % of control

Molecule: HP2/1 (antibody)
- Relative Binding to EAE Vessels (% of control) [5]: 3 % of control
- % Input Binding Jurkat to TNFα-stimulated rat brain EC clone [6]: 6 % input
- Jurkat binding to FN-coated plate (% inhibition) [7]: 47 % inhibition
- % Input Binding Ramos to VCAM-1 transfected L cells [8]: 0 % input
- Relative Binding to EAE Vessels (% of Control), human lymphocytes [9]: 0 % of Control
- Relative Binding to EAE Vessels (% of Control), rat lymphocytes (α4 integrin (rat) (rat)): 18 % of Control

Molecule: MEL-14 (antibody)
- Relative Binding to EAE Vessels (% of Control), mouse lymphocytes [10]: 92 % of Control

Molecule: OX-7 (antibody)
- Relative Binding to EAE Vessels (% of Control), rat lymphocytes (Thy 1.1 (rat) (rat)): 87 % of Control

Molecule: CC(C)OC(=O)[C@H](Cc1ccc(OC(=O)N2CCN(C)CC2)cc1)NC(=O)[C@H]1N(S(=O)(=O)c2cccnc2)CSC1(C)C [Example 381, N-[N-(3-pyridinesulfonyl)-L-3,3-dimethyl-4-thiaprolyl]-O-[1-methylpiperazin-4-ylcarbonyl]-L-tyrosine isopropyl ester]
- SCR-stained spinal cord lesions after 20 days of treatment ([11]; 20 days, listed as N-[N-(3-pyridinesulfonyl)-L-3,3-dimethyl-4-thiaprolyl]-O-[1-methylpiperzain-4-yl): lesions with a diffuse blue stain covering the plaque
- SCR-stained spinal cord lesions after 40 days of treatment ([11]; 40 days, listed as N-[N-(3-pyridinesulfonyl)-L-3,3-dimethyl-4-thiaprolyl]-O-[1-methylpiperzain-4-yl): majority of lesions showed clear myelin pallor
- percentage of remyelination (mean percent of lesion area with myelin pallor) ([11]; after 20, 30 or 40 days of therapy): 50%
- semithin and EM sections of lesions ([11]; day 30 of treatment, listed as N-[N-(3-pyridinesulfonyl)-L-3,3-dimethyl-4-thiaprolyl]-O-[1-methylpiperzain-4-yl): multiple layers of thin myelin wrappings around large diameter axons indicative of remyelination
- incidence of remyelination (lesions with myelin pallor) versus saline ([11]; time-dependent): increased the incidence of remyelination
- mean clinical score day 70-80 after withdrawal (30 days treatment, 10 days off) versus continuous treatment ([12]; n=5, p<0.05 Mann Whitney): significantly higher
- escape from treatment ([12]; up to 40 days of treatment): no escape from treatment
- adverse side effects during prolonged administration ([12]; up to 40 days, 30 mg/kg 2x/day s.c., guinea pig, 30 mg/kg): no adverse side effects
- cell number in spinal cord versus saline-treated animals ([13]; after 10, 20, 30 or 40 days, p<0.001 two-way ANOVA): fewer cells
- mean cell count after removal of compound for 10 days versus continuous treatment ([13]; p<0.05): significantly increased
- spinal cord histology after 20 days of treatment (day 60) [14]: much smaller area of demyelination
- spinal cord histology after 40 days of treatment (day 80) [14]: almost no meningeal and perivascular inflammation
- IC50 (α4 integrin): 1 to 10 nM
- cytokine RNA after withdrawal of compound (IL-2, IL-10, MCP-1 RNA): rose to levels comparable to those in saline-treated animals

B1: TY21.6 (antibody, V domains shown)
VH: EVQLQQSGAELVKPGASVKLSCTASGFNIKDTYIHCVKQRPEQGLEWIGRIDPANGYTKYDPKFQGKATITADTSSNTAYLQLSSLTSEDTAVYFCAREGYYGNYGVYAMDYWGQGTSVTVSS
VL: DIQMTQSPSSLSASLGGKVTITCKTSQDINKYMAWYQHKPGKRPRLLIHYTSALQPGIPSRFSGSGSGRDYSFNISNLEPEDIATYYCLQYDNLWTFGGGTKLEIK
- % Input Binding Jurkat to TNFα-stimulated rat brain EC clone [6]: 8 % input
- Binding of U937 cells to inflamed vessels in sections of EAE brain [17]: 0
- Jurkat binding to FN-coated plate (% inhibition) [7]: 45 % inhibition
- binding affinity for VLA-4 (VLA-4): about 10^9 M^−1
- % Input Binding Ramos to VCAM-1 transfected L cells [8]: 1 % input
- human lymphocyte binding to TNF-stimulated rat brain cell cultures (human lymphocytes): inhibit human lymphocyte binding
